The results in this text go back to patent US20210214449A1 (ZOETIS SERVICES, published 2021).

Like-named read-outs stand apart in the source and are kept apart here.

The target in one assay is human NGF (human) (UniProt P01138). In words: SPR (Biacore T200), 100 nM mAb on NGF chip, vs parent mAb. (In general: Surface plasmon resonance follows binding to a sensor surface in real time, without labels.)
The next assay concerns the target rat NGF (rat) (UniProt P25427). The description is as above.
Assay [1] addresses T1, canine NGF (canine, UniProt Q29074 110-229 (pig entry), limits assumed).
T1 chain: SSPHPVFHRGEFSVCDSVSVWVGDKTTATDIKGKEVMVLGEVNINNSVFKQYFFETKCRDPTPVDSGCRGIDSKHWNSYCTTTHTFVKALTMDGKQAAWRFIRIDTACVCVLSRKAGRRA
In words: cell-based or functional assay.

Assay [2] deals with T1, canine NGF. In words: cell-based or functional assay.
The target in assay [3] is T1, canine NGF. In words: cell-based or functional assay.

human NGF (human), sequence (P01138 other isoform, or with tags, fused parts or gaps limits assumed): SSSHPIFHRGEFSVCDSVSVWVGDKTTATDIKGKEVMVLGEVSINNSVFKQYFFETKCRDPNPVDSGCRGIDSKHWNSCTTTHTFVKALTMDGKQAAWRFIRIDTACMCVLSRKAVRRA
rat NGF (rat), sequence (P25427 122-241 limits assumed): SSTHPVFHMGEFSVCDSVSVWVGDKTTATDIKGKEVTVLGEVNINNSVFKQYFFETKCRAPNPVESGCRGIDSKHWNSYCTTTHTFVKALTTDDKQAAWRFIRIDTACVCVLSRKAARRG

B1: can9L12VH_K98A (antibody, V domains shown)
VH: EVQLVESGGDLVKPGGSLRLSCVASGFTFSSHGMHWVRQSPGKGLQWVAVINSGGSSTYYTDAVKGRFTISRDNAKNTVYLQMNSLRAEDTAMYYCAAESVGGWEQLVGPHFDYWGQGTLVIVSS
VL: QSVLTQPTSVSGSLGQRVTISCSGSTNNIGILGASWYQLFPGKAPKLLVYGNGNRPSGVPDRFSGADSGDSVTLTITGLQAEDEADYYCQSFDTTLGAHVFGGGTHLTVL
As for B1, the Percent Similarity Score (%) with human NGF (human) was 8.58%; with rat NGF (rat), 7.92%.

B2: can9L12VH_V101A (antibody, V domains shown)
VH: EVQLVESGGDLVKPGGSLRLSCVASGFTFSSHGMHWVRQSPGKGLQWVAVINSGGSSTYYTDAVKGRFTISRDNAKNTVYLQMNSLRAEDTAMYYCAKESAGGWEQLVGPHFDYWGQGTLVIVSS
VL: QSVLTQPTSVSGSLGQRVTISCSGSTNNIGILGASWYQLFPGKAPKLLVYGNGNRPSGVPDRFSGADSGDSVTLTITGLQAEDEADYYCQSFDTTLGAHVFGGGTHLTVL
B2: the Percent Similarity Score (%) with human NGF (human) turned out to be 5.29%.

B3: ZTS-841 (antibody, V domains shown)
VH: EVQLVESGGDLVKPGGSLRLSCVASGFTFSSHGMHWVRQSPGKGLQWVAVINSGGSSTYYTDAVKGRFTISRDNAKNTVYLQMNSLRAEDTAMYYCAKESVGGWEQLVGPHFDYWGQGTLVIVSS
VL: QSVLTQPTSVSGSLGQRVTISCSGSTNNIGILGASWYQLFPGKAPKLLVYGNGNRPSGVPDRFSGADSGDSVTLTITGLQAEDEADYYCQSFDTTLGAHVFGGGTHLTVL
On to B3, for which, in the assay with canine NGF [1], the “IC50 (read off the curve), canine NGF-induced pERK-1/2 in caTrkA-CHO cells” value was approximately 0.2 µg/ml. Also, the “IC50 (read off the curve), canine NGF-induced TF-1 cell proliferation” value with canine NGF [2] is approximately 8 ng/mL.

B4: can9L12VH_W104A (antibody, V domains shown)
VH: EVQLVESGGDLVKPGGSLRLSCVASGFTFSSHGMHWVRQSPGKGLQWVAVINSGGSSTYYTDAVKGRFTISRDNAKNTVYLQMNSLRAEDTAMYYCAKESVGGAEQLVGPHFDYWGQGTLVIVSS
VL: QSVLTQPTSVSGSLGQRVTISCSGSTNNIGILGASWYQLFPGKAPKLLVYGNGNRPSGVPDRFSGADSGDSVTLTITGLQAEDEADYYCQSFDTTLGAHVFGGGTHLTVL
As to B4, the Percent Similarity Score (%) in the assay with rat NGF (rat) stood at 8.2%.

B5: can9L12VH_F112A (antibody, V domains shown)
VH: EVQLVESGGDLVKPGGSLRLSCVASGFTFSSHGMHWVRQSPGKGLQWVAVINSGGSSTYYTDAVKGRFTISRDNAKNTVYLQMNSLRAEDTAMYYCAKESVGGWEQLVGPHADYWGQGTLVIVSS
VL: QSVLTQPTSVSGSLGQRVTISCSGSTNNIGILGASWYQLFPGKAPKLLVYGNGNRPSGVPDRFSGADSGDSVTLTITGLQAEDEADYYCQSFDTTLGAHVFGGGTHLTVL
For the molecule B5, in the assay with human NGF (human), the Percent Similarity Score (%) worked out at 8%.

B6: ZTS-842 (antibody, V domains shown)
VH: EVQLVESGGDLVKPGGSLRLSCVASGFTFSTYGINWVRQAPGKGLQWVAYISSGGSSTYYADPVKGRFTISRDDAKNMLYLQMNSLRAEDTAIYYCAGSRYTYAYGGGYEFHFWGQGTLVTVSS
VL: QAVLNQPASVSGALGQKVTISCSGSTMDIDIFGVSWYQQLPGKAPKLLVDSDGDRPSGIPDRFSGSRSGNSGTLTITGLQAEDEADYHCQSGDSTLGALAIFGGGTHVTVL
As to B6, the “IC50 (read off the curve), canine NGF-induced pERK-1/2 in caTrkA-CHO cells” value in the assay with canine NGF [1] is approximately 0.1 µg/ml. Also, in the assay with canine NGF [2], the “IC50 (read off the curve), canine NGF-induced TF-1 cell proliferation” value is approximately 5 ng/mL.

B7: fel48L2 1.1 (antibody, V domains shown)
VH: DVQLVESGGDLVKPGGSLRLTCVASGFTFSTYGINWVRQAPGKGLQWVAYISSGGSSTYYADPVKGRFTISRDNAKNMLYLQMNNLKTEDTATYYCAGSRYTYAYGGGYEFHFWGQGTLVTVSS
VL: QAVLNQPSSVSGALGQRVTISCSGSTMDIDIFGVSWYQQIPGMAPKTIIDSDGDRPSGVPDRFSGSKSGSTGTLTITGLQAEDEADYYCQSGDSTLGALAIFGGGTHVTVLG
Turning to B7, the “IC50 (read off the curve), canine NGF-induced TF-1 cell proliferation” value with canine NGF [3] is approximately 7 ng/mL.
